In the RNAGym collection of RNA variant scans (doi:10.7554/elife.80360):

B1: Hairpin Ribozyme (parent)
chain: GUCCUCUUUCACGUGCGCGUGAAAGAGAGAAGUGAACCAGAGAAACACACGUUGUGGUAUAUUACCUGGUA

Variants of: B1
Assay: self-cleavage, relative activity (ratio to wild type); higher = more cleavage; co-transcriptional

| Variant | self-cleavage |
| --- | --- |
| GUCAUCUUUCACGUGCGCGUGAAAGAGAGAAGUGAACCAGAGAAACACACGUUGUGGUAUAUGACCUGGUA | 0.269 |
| GUCAUCUUUCACGUGCGCGUGAAAGAGAGAAGUGAACCAGAGAAACACACGUUGUGGUAUAUCACCUGGUA | 0.115 |
| GUCAUCUUUCACGUGCGCGUGAAAGAGAGAAGUGAACCAGAGAAACACACGUUGUGGUAUAUAACCUGGUA | 0.101 |
| GUCGUCUUUCACGUGCGCGUCAAAGAGAGAAGUGAACCAGAGAAACACACGUUGUGGUAUAUUACCUGGUA | 0.231 |
| GUCGUCUUUCACGUGCGCGUUAAAGAGAGAAGUGAACCAGAGAAACACACGUUGUGGUAUAUUACCUGGUA | 0.123 |
| GUCGUCUUUCACGUGCGCGUGAAAGAUAGAAGUGAACCAGAGAAACACACGUUGUGGUAUAUUACCUGGUA | 0.31 |
| GUCAUCUUUCACGUGCGCGAGAAAGAGAGAAGUGAACCAGAGAAACACACGUUGUGGUAUAUUACCUGGUA | 0.0852 |
| GUCAUCUUUCACGUGCGCGUGAAAGAGAGAAGUGAACCAGAGAAACACACGUUGUGGCAUAUUACCUGGUA | 0.293 |
| GUCAUCUUUCACGUGCGCGUGAAAGAGAGAAGUGAACCAAAGAAACACACGUUGUGGUAUAUUACCUGGUA | 0.133 |
| GUCAUCUUUCACGUGCGCGUGAAAGAGAGAAGUGAACCACAGAAACACACGUUGUGGUAUAUUACCUGGUA | 0.0835 |
| GUCAUCUUUCACGUGCGCGUGAAAGAGAGAAGUGAACCAUAGAAACACACGUUGUGGUAUAUUACCUGGUA | 0.141 |
| GUCGUCUUUCACGUGCGCGUGAGAGAGAGAAGUGAACCAGAGAAACACACGUUGUGGUAUAUUACCUGGUA | 0.25 |
| GUCGUCUUUCACGUGCGCGUGACAGAGAGAAGUGAACCAGAGAAACACACGUUGUGGUAUAUUACCUGGUA | 0.233 |
| GUCAUCUUUCACGUGCGCGUGAAAAAGAGAAGUGAACCAGAGAAACACACGUUGUGGUAUAUUACCUGGUA | 0.169 |
| GUCGUCUUUGACGUGCGCGUGAAAGAGAGAAGUGAACCAGAGAAACACACGUUGUGGUAUAUUACCUGGUA | 0.114 |
| GUCGUCUUUAACGUGCGCGUGAAAGAGAGAAGUGAACCAGAGAAACACACGUUGUGGUAUAUUACCUGGUA | 0.12 |
| GUCGUCUUUCACGUGCGCGUGAAAGAGAGAAGUGAACCAGAGAAACACACGUUGUGGUAUAUUACCUGGUG | 0.241 |
| GUCGUCUUUCACGUGCGCGUGAAAGAGAGAAGUGAACCAGAGAAACACACGUUGUGGUAUAUUACCUGGUU | 0.289 |
| GUCAUCUUUCACGUGCGCGUGAAAGAGAGAAGUGAACCAGAGAAACACACGUUGUAGUAUAUUACCUGGUA | 0.114 |

| Variant | self-cleavage |
| --- | --- |
| GUCGUCUUUCACGUGCGCGUGAAAGAGCGAAGUGAACCAGAGAAACACACGUUGUGGUAUAUUACCUGGUA | 0.172 |
| GUCAUCUUUCACGUGCGCGUGAAAGAGAAAAGUGAACCAGAGAAACACACGUUGUGGUAUAUUACCUGGUA | 0.119 |
| GUCGUCUUUCACGUGCGCGUGAAAGAGAGAAGUGAAUCAGAGAAACACACGUUGUGGUAUAUUACCUGGUA | 0.222 |
| GUCAUCUUUCACGUGCGCGUGAAAGAGAGAAGUGAACCAGAGAAACACACGUUGUGGUAUAGUACCUGGUA | 0.1 |
| GUCAUCUUUCACGUGCGCGUGAAAGACAGAAGUGAACCAGAGAAACACACGUUGUGGUAUAUUACCUGGUA | 0.093 |
| GUCAUCUUUCACGUGCGCGUGAAAGAUAGAAGUGAACCAGAGAAACACACGUUGUGGUAUAUUACCUGGUA | 0.557 |
| GUCAUCUUUCACGUGCGCGUGAAAGAAAGAAGUGAACCAGAGAAACACACGUUGUGGUAUAUUACCUGGUA | 0.285 |
| GUCACCUUUCACGUGCGCGUGAAAGAGAGAAGUGAACCAGAGAAACACACGUUGUGGUAUAUUACCUGGUA | 0.23 |
| GUCAGCUUUCACGUGCGCGUGAAAGAGAGAAGUGAACCAGAGAAACACACGUUGUGGUAUAUUACCUGGUA | 0.109 |
| GUCGUCUUUCACGUGCGCGUGAAAGAGAGAAGUGAACCAGAGAAGCACACGUUGUGGUAUAUUACCUGGUA | 0.274 |
| GUCAUCUUUCACGUGCGCGUGAAAGAGAGAAGUGAACCAGAGAAACACACGUUGAGGUAUAUUACCUGGUA | 0.163 |
| GUCAUCUUUCACGUGCGCGUGAAAGAGAGAAGUGAACCAGAGAAACACACGUUGCGGUAUAUUACCUGGUA | 0.0693 |
| GUCGUCUUUCACGUGCGCGUGAAAGAGAGAAGUGAACCAGAGAAACACACGUUGUGGUAUAUUCCCUGGUA | 0.167 |
| GUCGUCUUUCACGUGCGCGUGAAAGAGAGAAGUGAACGAGAGAAACACACGUUGUGGUAUAUUACCUGGUA | 0.104 |
| GUCGUCUUUCACGUGCGGGUGAAAGAGAGAAGUGAACCAGAGAAACACACGUUGUGGUAUAUUACCUGGUA | 0.0835 |
| GUCGUCUUUCACGUGCGAGUGAAAGAGAGAAGUGAACCAGAGAAACACACGUUGUGGUAUAUUACCUGGUA | 0.194 |
| GUCGUCUUUCACGUGCGCGUGAAAGAGAGAAGUGAACCAGAGAAACACAUGUUGUGGUAUAUUACCUGGUA | 0.154 |
| GUCAUCUUUCACGUGCGCGUGAAAGAGAGAAGUGAACCAGAGAAACACACGUUGUGCUAUAUUACCUGGUA | 0.156 |
| GUCAUCUUUCACGUGCGCGUGAAAGAGAGAAGUGAACCAGAGAAACACACGUUGUGAUAUAUUACCUGGUA | 0.117 |
